Source: paper PMC12513983, “Backbone and sidechain ^1H, ^15N and ^13C resonance assignments of a multidrug efflux membrane protein using solution and solid-state NMR” (Biomolecular Nmr Assignments, 2025)

Biological target: the molecule itself
Assay: solid-state NMR (magic-angle spinning, 13C-detected resonance assignment); S64V-EmrE in POPC proteoliposomes, 25:1 lipid/EmrE monomer, pH 5.8; 2D NCA shows separate peaks for chain A and chain B

B1: S64V-EmrE (natural protein, E. coli, UniProt P23895 1-110, looked up)
chain: MNPYIYLGGAILAEVIGTTLMKFSEGFTRLWPSVGTIICYCASFWLLAQTLAYIPTGIAYAIWVGVGIVLISLLSWGFFGQRLDLPAIIGMMLICAGVLIINLLSRSTPH
notes: also called EmrE mutant S64V; EmrE S64V
  binding result: binds
